Experimental data taken from patent publication US20110091994A1, “Methods for Screening Compounds for Treating and/or Preventing an Hepatitis C Virus Infection” (priority 2008, published 2011).
Read-outs that look alike come from different tables or passages of the source.

Key:
[1] = biological target: T1, HCV ORFs (Gal4-DB fusions) (Hepatitis C virus genotype 1b, UniProt Q9WMX2); type: binding, HCV genotype 1b, isolate con1; conditions: human protein as prey
T1 construct: expressed in transfected cells; host or cells: Saccharomyces cerevisiae MAV203 (IMAP1) / AH109 (IMAP2)

[2] = system: HCV ORFs (Gal4-DB fusions); type: binding, HCV genotype 1b, isolate con1; conditions: human protein listed by gene symbol; the value names the HCV protein it interacts with
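Note: yeast two-hybrid screens using HCV genotype 1b proteins fused to Gal4-DB as baits against prey cDNA libraries from human spleen and foetal brain, IMAP1 via transformation and IMAP2 via mating.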

B1: ARFIP1 (protein, UniProt P53367 2-373, looked up)
Arfaptin-1: AQESPKNSAAEIPVTSNGEVDDSREHSFNRDLKHSLPSGLGLSETQITSHGFDNTKEGVIEAGAFQGSPAPPLPSVMSPSRVAASRLAQQGSDLIVPAGGQRTQTKSGPVILADEIKNPAMEKLELVRKWSLNTYKCTRQIISEKLGRGSRTVDLELEAQIDILRDNKKKYENILKLAQTLSTQLFQMVHTQRQLGDAFADLSLKSLELHEEFGYNADTQKLLAKNGETLLGAINFFIASVNTLVNKTIEDTLMTVKQYESARIEYDAYRTDLEELNLGPRDANTLPKIEQSQHLFQAHKEKYDKMRNDVSVKLKFLEENKVKVLHNQLVLFHNAIAAYFAGNQKQLEQTLKQFHIKLKTPGVDAPSWLEEQ
For B1, the “IMAP Y2H IMAP2 (number of IST)” value ([1]; HCV protein NS5A as bait) was 9 and the “Interaction with viral protein” value [2] was “NS5A”.

B2: CCDC100 (protein, UniProt Q8N960 1-986, looked up)
Centrosomal protein of 120 kDa: MVSKSDQLLIVVSILEGRHFPKRPKHMLVVEAKFDGEQLATDPVDHTDQPEFATELAWEIDRKALHQHRLQRTPIKLQCFALDPVTSAKETIGYIVLDLRTAQETKQAPKWYQLLSNKYTKFKSEIQISIALETDTKPPVDSFKAKGAPPRDGKVPAILAGLDPRDIVAVLNEEGGYHQIGPAEYCTDSFIMSVTIAFATQLEQLIPCTMKLPERQPEFFFYYSLLGNDVTNEPFNDLINPNFEPERASVRIRSSVEILRVYLALQSKLQIHLCCGDQSLGSTEIPLTGLLKKGSTEINQHPVTVEGAFTLDPPNRAKQKLAPIPVELAPTVGVSVALQREGIDSQSLIELKTQNEHEPEHSKKKVLTPIKEKTLTGPKSPTVSPVPSHNQSPPTKDDATESEVESLQYDKDTKPNPKASSSVPASLAQLVTTSNASEVASGQKIAVPATSHHFCFSIDLRSIHALEIGFPINCILRYSYPFFGSAAPIMTNPPVEVRKNMEVFLPQSYCAFDFATMPHQLQDTFLRIPLLVELWHKDKMSKDLLLGIARIQLSNILSSEKTRFLGSNGEQCWRQTYSESVPVIAAQGSNNRIADLSYTVTLEDYGLVKMREIFISDSSQGVSAVQQKPSSLPPAPCPSEIQTEPRETLEYKAALELEMWKEMQEDIFENQLKQKELAHMQALAEEWKKRDRERESLVKKKVAEYTILEGKLQKTLIDLEKREQQLASVESELQREKKELQSERQRNLQELQDSIRRAKEDCIHQVELERLKIKQLEEDKHRLQQQLNDAENKYKILEKEFQQFKDQQNNKPEIRLQSEINLLTLEKVELERKLESATKSKLHYKQQWGRALKELARLKQREQESQMARLKKQQEELEQMRLRYLAAEEKDTVKTERQELLDIRNELNRLRQQEQKQYQDSTEIASGKKDGPHGSVLEEGLDDYLTRLIEERDTLMRTGVYNHEDRIISELDRQIREILAKSNASN
In the case of B2, the “IMAP Y2H IMAP2 (number of IST)” value ([1]; HCV protein NS5A as bait) is reported as 1 and the “Interaction with viral protein” value [2] is reported as “NS5A”.

B3: UBE1C (protein, UniProt Q8TBC4 2-463, looked up)
NEDD8-activating enzyme E1 …: ADGEEPEKKRRRIEELLAEKMAVDGGCGDTGDWEGRWNHVKKFLERSGPFTHPDFEPSTESLQFLLDTCKVLVIGAGGLGCELLKNLALSGFRQIHVIDMDTIDVSNLNRQFLFRPKDIGRPKAEVAAEFLNDRVPNCNVVPHFNKIQDFNDTFYRQFHIIVCGLDSIIARRWINGMLISLLNYEDGVLDPSSIVPLIDGGTEGFKGNARVILPGMTACIECTLELYPPQVNFPMCTIASMPRLPEHCIEYVRMLQWPKEQPFGEGVPLDGDDPEHIQWIFQKSLERASQYNIRGVTYRLTQGVVKRIIPAVASTNAVIAAVCATEVFKIATSAYIPLNNYLVFNDVDGLYTYTFEAERKENCPACSQLPQNIQFSPSAKLQEVLDYLTNSASLQMKSPAITATLEGKNRTLYLQSVTSIEERTRPNLSKTLKELGLVDGQELAVADVTTPQTVLFKLHFTS
With B3 the “IMAP Y2H IMAP2 (number of IST)” value ([1]; HCV protein NS3 as bait) was 1 and the “Interaction with viral protein” value [2] was “NS3”.

B4: ACLY (protein, UniProt P53396 1-1101, looked up)
ATP-citrate synthase: MSAKAISEQTGKELLYKFICTTSAIQNRFKYARVTPDTDWARLLQDHPWLLSQNLVVKPDQLIKRRGKLGLVGVNLTLDGVKSWLKPRLGQEATVGKATGFLKNFLIEPFVPHSQAEEFYVCIYATREGDYVLFHHEGGVDVGDVDAKAQKLLVGVDEKLNPEDIKKHLLVHAPEDKKEILASFISGLFNFYEDLYFTYLEINPLVVTKDGVYVLDLAAKVDATADYICKVKWGDIEFPPPFGREAYPEEAYIADLDAKSGASLKLTLLNPKGRIWTMVAGGGASVVYSDTICDLGGVNELANYGEYSGAPSEQQTYDYAKTILSLMTREKHPDGKILIIGGSIANFTNVAATFKGIVRAIRDYQGPLKEHEVTIFVRRGGPNYQEGLRVMGEVGKTTGIPIHVFGTETHMTAIVGMALGHRPIPNQPPTAAHTANFLLNASGSTSTPAPSRTASFSESRADEVAPAKKAKPAMPQDSVPSPRSLQGKSTTLFSRHTKAIVWGMQTRAVQGMLDFDYVCSRDEPSVAAMVYPFTGDHKQKFYWGHKEILIPVFKNMADAMRKHPEVDVLINFASLRSAYDSTMETMNYAQIRTIAIIAEGIPEALTRKLIKKADQKGVTIIGPATVGGIKPGCFKIGNTGGMLDNILASKLYRPGSVAYVSRSGGMSNELNNIISRTTDGVYEGVAIGGDRYPGSTFMDHVLRYQDTPGVKMIVVLGEIGGTEEYKICRGIKEGRLTKPIVCWCIGTCATMFSSEVQFGHAGACANQASETAVAKNQALKEAGVFVPRSFDELGEIIQSVYEDLVANGVIVPAQEVPPPTVPMDYSWARELGLIRKPASFMTSICDERGQELIYAGMPITEVFKEEMGIGGVLGLLWFQKRLPKYSCQFIEMCLMVTADHGPAVSGAHNTIICARAGKDLVSSLTSGLLTIGDRFGGALDAAAKMFSKAFDSGIIPMEFVNKMKKEGKLIMGIGHRVKSINNPDMRVQILKDYVRQHFPATPLLDYALEVEKITTSKKPNLILNVDGLIGVAFVDMLRNCGSFTREEADEYIDIGALNGIFVLGRSMGFIGHYLDQKRLKQGLYRHPWDDISYVLPEHMSM
With B4 the “IMAP Y2H IMAP2 (number of IST)” value ([1]; HCV protein NS5A as bait) was 1 and the “Interaction with viral protein” value [2] was “NS5A”.

B5: ZMYM2 (protein, UniProt Q9UBW7 1-1377, looked up)
Zinc finger MYM-type protein 2: MDTSSVGGLELTDQTPVLLGSTAMATSLTNVGNSFSGPANPLVSRSNKFQNSSVEDDDDVVFIEPVQPPPPSVPVVADQRTITFTSSKNEELQGNDSKITPSSKELASQKGSVSETIVIDDEEDMETNQGQEKNSSNFIERRPPETKNRTNDVDFSTSSFSRSKVNAGMGNSGITTEPDSEIQIANVTTLETGVSSVNDGQLENTDGRDMNLMITHVTSLQNTNLGDVSNGLQSSNFGVNIQTYTPSLTSQTKTGVGPFNPGRMNVAGDVFQNGESATHHNPDSWISQSASFPRNQKQPGVDSLSPVASLPKQIFQPSVQQQPTKPVKVTCANCKKPLQKGQTAYQRKGSAHLFCSTTCLSSFSHKPAPKKLCVMCKKDITTMKGTIVAQVDSSESFQEFCSTSCLSLYEDKQNPTKGALNKSRCTICGKLTEIRHEVSFKNMTHKLCSDHCFNRYRMANGLIMNCCEQCGEYLPSKGAGNNVLVIDGQQKRFCCQSCVSEYKQVGSHPSFLKEVRDHMQDSFLMQPEKYGKLTTCTGCRTQCRFFDMTQCIGPNGYMEPYCSTACMNSHKTKYAKSQSLGIICHFCKRNSLPQYQATMPDGKLYNFCNSSCVAKFQALSMQSSPNGQFVAPSDIQLKCNYCKNSFCSKPEILEWENKVHQFCSKTCSDDYKKLHCIVTYCEYCQEEKTLHETVNFSGVKRPFCSEGCKLLYKQDFARRLGLRCVTCNYCSQLCKKGATKELDGVVRDFCSEDCCKKFQDWYYKAARCDCCKSQGTLKERVQWRGEMKHFCDQHCLLRFYCQQNEPNMTTQKGPENLHYDQGCQTSRTKMTGSAPPPSPTPNKEMKNKAVLCKPLTMTKATYCKPHMQTKSCQTDDTWRTEYVPVPIPVPVYIPVPMHMYSQNIPVPTTVPVPVPVPVFLPAPLDSSEKIPAAIEELKSKVSSDALDTELLTMTDMMSEDEGKTETTNINSVIIETDIIGSDLLKNSDPETQSSMPDVPYEPDLDIEIDFPRAAEELDMENEFLLPPVFGEEYEEQPRPRSKKKGAKRKAVSGYQSHDDSSDNSECSFPFKYTYGVNAWKHWVKTRQLDEDLLVLDELKSSKSVKLKEDLLSHTTAELNYGLAHFVNEIRRPNGENYAPDSIYYLCLGIQEYLCGSNRKDNIFIDPGYQTFEQELNKILRSWQPSILPDGSIFSRVEEDYLWRIKQLGSHSPVALLNTLFYFNTKYFGLKTVEQHLRLSFGTVFRHWKKNPLTMENKACLRYQVSSLCGTDNEDKITTGKRKHEDDEPVFEQIENTANPSRCPVKMFECYLSKSPQNLNQRMDVFYLQPECSSSTDSPVWYTSTSLDRNTLENMLVRVLLVKDIYDKDNYELDEDTD
In the case of B5, the “IMAP Y2H IMAP2 (number of IST)” value ([1]; HCV protein NS3 as bait) is reported as 2 and the “Interaction with viral protein” value [2] is reported as “NS3”.

B6: TRAF3IP3 (protein, UniProt Q9Y228 1-551, looked up)
TRAF3-interacting …: MISPDPRPSPGLARWAESYEAKCERRQEIRESRRCRPNVTTCRQVGKTLRIQQREQLQRARLQQFFRRRNLELEEKGKAQHPQAREQGPSRRPGQVTVLKEPLSCARRISSPREQVTGTSSEVFPAQHPPPSGICRDLSDHLSSQAGGLPPQDTPIKKPPKHHRGTQTKAEGPTIKNDASQQTNYGVAVLDKEIIQLSDYLKEALQRELVLKQKMVILQDLLSTLIQASDSSWKGQLNEDKLKGKLRSLENQLYTCTQKYSPWGMKKVLLEMEDQKNSYEQKAKESLQKVLEEKMNAEQQLQSTQRSLALAEQKCEEWRSQYEALKEDWRTLGTQHRELESQLHVLQSKLQGADSRDLQMNQALRFLENEHQQLQAKIECLQGDRDLCSLDTQDLQDQLKRSEAEKLTLVTRVQQLQGLLQNQSLQLQEQEKLLTKKDQALPVWSPKSFPNEVEPEGTGKEKDWDLRDQLQKKTLQLQAKEKECRELHSELDNLSDEYLSCLRKLQHCREELNQSQQLPPRRQCGRWLPVLMVVIAAALAVFLANKDNLMI
For B6, the “IMAP Y2H IMAP2 (number of IST)” value ([1]; HCV protein NS4A as bait) was 1 and the “Interaction with viral protein” value [2] was “NS4A”.

B7: TMEM63B (protein, UniProt Q5T3F8 1-832, looked up)
Mechanosensitive cation …: MLPFLLATLGTTALNNSNPKDYCYSARIRSTVLQGLPFGGVPTVLALDFMCFLALLFLFSILRKVAWDYGRLALVTDADRLRRQERDRVEQEYVASAMHGDSHDRYERLTSVSSSVDFDQRDNGFCSWLTAIFRIKDDEIRDKCGGDAVHYLSFQRHIIGLLVVVGVLSVGIVLPVNFSGDLLENNAYSFGRTTIANLKSGNNLLWLHTSFAFLYLLLTVYSMRRHTSKMRYKEDDLVKRTLFINGISKYAESEKIKKHFEEAYPNCTVLEARPCYNVARLMFLDAERKKAERGKLYFTNLQSKENVPTMINPKPCGHLCCCVVRGCEQVEAIEYYTKLEQKLKEDYKREKEKVNEKPLGMAFVTFHNETITAIILKDFNVCKCQGCTCRGEPRPSSCSESLHISNWTVSYAPDPQNIYWEHLSIRGFIWWLRCLVINVVLFILLFFLTTPAIIITTMDKFNVTKPVEYLNNPIITQFFPTLLLWCFSALLPTIVYYSAFFEAHWTRSGENRTTMHKCYTFLIFMVLLLPSLGLSSLDLFFRWLFDKKFLAEAAIRFECVFLPDNGAFFVNYVIASAFIGNAMDLLRIPGLLMYMIRLCLARSAAERRNVKRHQAYEFQFGAAYAWMMCVFTVVMTYSITCPIIVPFGLMYMLLKHLVDRYNLYYAYLPAKLDKKIHSGAVNQVVAAPILCLFWLLFFSTMRTGFLAPTSMFTFVVLVITIVICLCHVCFGHFKYLSAHNYKIEHTETDTVDPRSNGRPPTAAAVPKSAKYIAQVLQDSEVDGDGDGAPGSSGDEPPSSSSQDEELLMPPDALTDTDFQSCEDSLIENEIHQ
With B7 the “IMAP Y2H IMAP2 (number of IST)” value ([1]; HCV protein NS3 as bait) was 1 and the “Interaction with viral protein” value [2] was “NS3”.
